Test results from patent US20040071694A1.

Molecular target: biotinylated EpoR (Abbott CHO cell derived ref.# RB69084:4) (UniProt P19235)
Assay: immunofluorescence microscopy on EpoR-coated sheep red blood cells

Chain of biotinylated EpoR (Abbott CHO cell derived ref.# RB69084:4) (P19235 25-250 limits assumed): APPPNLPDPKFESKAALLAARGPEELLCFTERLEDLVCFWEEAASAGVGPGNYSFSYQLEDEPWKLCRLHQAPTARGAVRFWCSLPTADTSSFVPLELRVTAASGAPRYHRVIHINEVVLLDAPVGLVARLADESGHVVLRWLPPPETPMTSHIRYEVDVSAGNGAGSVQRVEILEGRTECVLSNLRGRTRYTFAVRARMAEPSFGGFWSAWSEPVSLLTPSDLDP

immunofluorescence score (arbitrary scale of 0-4) (score out of 4): 4
Substance: murine antiEpoR antibody (R&D Systems Cat.# MAB307)
